Data published in patent US20230060388A1 (SHANGHAI HENLIUS BIOTECH, published 2023).

Key:
[1] = target: T1, human PD1 expressed on transfected Jurkat cells (human, UniProt Q15116 25-288); experiment: cell-based or functional assay
[2] = target: T2, his-tagged recombinant human TIGIT ECD (human, UniProt Q495A1 22-138); experiment: Octet, antibody loaded on the sensor, his-tagged h-PD1 ECD injected first, his-tagged h-TIGIT ECD second
T2 construct: also called h-TIGIT ECD (his-tagged); not shown: his tag
T2 sequence: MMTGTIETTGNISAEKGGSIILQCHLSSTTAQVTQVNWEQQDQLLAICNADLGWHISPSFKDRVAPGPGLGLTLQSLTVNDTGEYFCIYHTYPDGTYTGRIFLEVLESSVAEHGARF

[3] = target: T1, human PD1 expressed on transfected …; experiment: flow cytometry (whole cell binding) on h-PD1 transfected Jurkat cells; table under the graph, Average (n=4), SD 0.18
[4] = target: T1, human PD1 expressed on transfected …; experiment: PD1 WCB: whole cell binding, flow cytometry, h-PD1 Jurkat cells; mean
Protocol: The binding affinities of the BsAbs to human PD1 were also determined by whole cell binding assays using human PD1 transfected Jurkat cells. Antibodies were incubated with h-PD1 transfected Jurkat cells, and binding was determined using a secondary anti-h-IgG antibody conjugated with AlexaFluor488, which was detected by flow cytometry.

[5] = target: T3, human TIGIT expressed on cells (stably transfected Jurkat cells) (human, UniProt Q495A1 22-244); experiment: flow cytometry (whole cell binding) on h-TIGIT transfected Jurkat cells; table under the graph, Average (n=3), SD 0.35
T3 construct: Also used here for TIGIT on primary T cells in the MLR; also called h-TIGIT; T cell immunoreceptor with Ig and ITIM domains
T3 sequence: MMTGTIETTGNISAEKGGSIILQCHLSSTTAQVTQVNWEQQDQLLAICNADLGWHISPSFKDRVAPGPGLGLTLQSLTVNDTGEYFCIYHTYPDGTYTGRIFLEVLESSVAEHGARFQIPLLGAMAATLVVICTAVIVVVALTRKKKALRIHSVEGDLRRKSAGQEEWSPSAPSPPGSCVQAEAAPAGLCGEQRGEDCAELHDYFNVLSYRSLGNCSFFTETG

[6] = target: T3, human TIGIT expressed on cells (stably …); experiment: cell-based or functional assay
[7] = target: T3, human TIGIT expressed on cells (stably …); experiment: TIGIT WCB: whole cell binding, flow cytometry, h-TIGIT Jurkat cells; mean
Protocol: Affinity to TIGIT was further examined in whole cell binding assay using human TIGIT transfected Jurkat cells. Antibodies were incubated with h-TIGIT transfected Jurkat cells, and binding of antibodies to h-TIGIT was determined using a secondary anti-human-IgG Fc antibody conjugated with AlexaFluor488, which was detected by flow cytometry.

[8] = target: T4, recombinant human TIGIT extracellular domain (ECD) (human, UniProt Q495A1 22-138); experiment: ELISA on recombinant human TIGIT ECD
T4 construct: also called h-TIGIT ECD; recombinant human TIGIT ECD
T4 sequence: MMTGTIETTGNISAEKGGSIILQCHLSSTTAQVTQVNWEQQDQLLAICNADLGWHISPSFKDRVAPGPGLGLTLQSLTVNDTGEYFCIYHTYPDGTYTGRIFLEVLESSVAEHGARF
Protocol: (§1) FIGS. 8A-8C depict cross-binding activity of 2A3-Fc to human-, cyno- and mouse-TIGIT determined by ELISA assays. […] Reference Ab 2 is an anti-h-TIGIT reference antibody. Both 2A3-Fc and Reference Ab 2 bind to h-TIGIT with similar affinity. […] Both 2A3-Fc and Reference Ab 2 bind to cyno-TIGIT with similar affinity. […] Y axis represents OD450, X axis represents antibody concentrations in μg/ml.
(§2) Cross-species binding activity of 2A3-Fc to human, cynomolgus and mouse TIGIT was determined by ELISA assays, results of which are shown in FIGS. 8A-8C. 2A3-Fc bound to human, cynomolgus monkey but not mouse TIGIT.

recombinant mouse TIGIT = target: T5, recombinant mouse TIGIT (mouse, UniProt P86176 29-148, limits assumed); experiment: ELISA, recombinant mouse-TIGIT
T5 sequence (looked up): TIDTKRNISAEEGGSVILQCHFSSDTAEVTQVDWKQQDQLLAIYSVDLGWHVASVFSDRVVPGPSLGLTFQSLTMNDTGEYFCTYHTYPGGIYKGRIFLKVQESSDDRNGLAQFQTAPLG

[9] = target: T6, recombinant cynomolgus TIGIT (cynomolgus monkey); experiment: ELISA on recombinant cyno-TIGIT
T6 construct: also called cyno-TIGIT; cyno-TIGIT ECD
Protocol: as §1, §2

[10] = target: T3, human TIGIT expressed on cells (stably …); experiment: cell-based or functional assay; remark: listed apart in the source
[11] = target: T3, human TIGIT expressed on cells (stably …); experiment: flow cytometry on h-TIGIT transfected Jurkat cells (whole cell binding), Alexa Fluor 488 [upper panel]

T1 sequence (Q15116 25-288): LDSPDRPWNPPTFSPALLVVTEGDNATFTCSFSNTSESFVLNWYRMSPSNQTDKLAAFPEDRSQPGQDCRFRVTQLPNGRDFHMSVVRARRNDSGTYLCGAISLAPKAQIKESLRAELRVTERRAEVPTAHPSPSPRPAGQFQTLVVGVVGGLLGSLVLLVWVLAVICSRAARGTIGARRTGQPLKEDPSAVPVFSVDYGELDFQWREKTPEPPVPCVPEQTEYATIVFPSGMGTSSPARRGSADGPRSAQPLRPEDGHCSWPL

B1: parental anti-PD1 monoclonal antibody (antibody, human IgG4 S228P, kappa, V domains shown)
VH: QVQLVESGGGLVKPGGSLRLSCAASGFTFSNYGMSWIRQAPGKGLEWVSTISGGGSNIYYADSVKGRFTISRDNAKNSLYLQMNSLRAEDTAVYYCVSYYYGIDFWGQGTSVTVSS
VL: DIQMTQSPSSLSASVGDRVTITCKASQDVTTAVAWYQQKPGKAPKLLIYWASTRHTGVPSRFSGSGSGTDFTLTISSLQPEDFATYYCQQHYTIPWTFGGGTKLEIKR
notes: Antibody from WO 2018/052818 A1; also called aPD1; parental mAb anti-PD1
EC50 (Mean, nM), PD1 Blockade Assay [1]: 0.73 nM
binding result [2]: no binding (tested: concentrations not printed)
EC50 [3]: 0.36 nM
EC50 [4]: 0.6 nM

B2: anti-TIGIT x anti-PD1 bispecific antibody, LCN version (bispecific antibody, human IgG4 S228P, kappa)
heavy: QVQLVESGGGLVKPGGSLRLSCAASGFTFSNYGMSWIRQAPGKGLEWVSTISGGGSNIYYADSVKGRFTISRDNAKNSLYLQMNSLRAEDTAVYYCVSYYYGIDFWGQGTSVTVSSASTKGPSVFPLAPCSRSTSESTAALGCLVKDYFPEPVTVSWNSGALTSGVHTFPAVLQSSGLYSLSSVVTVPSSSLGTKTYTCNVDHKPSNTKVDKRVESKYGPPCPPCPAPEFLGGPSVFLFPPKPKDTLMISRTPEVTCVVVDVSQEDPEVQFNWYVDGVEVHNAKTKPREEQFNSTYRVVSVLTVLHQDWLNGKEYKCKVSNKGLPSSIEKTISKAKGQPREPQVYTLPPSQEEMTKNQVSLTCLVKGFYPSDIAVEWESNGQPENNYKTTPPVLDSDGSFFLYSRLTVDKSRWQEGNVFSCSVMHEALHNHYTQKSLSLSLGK
light: QVQLVESGGGVVQPGRSLRLSCAASGGSFSSYPMGWFRQAPGKERESVAAISSDLRFTYYADSVKGRFTISRDNSKNTLYLQMNSLRAEDTAVYYCAARTSGVGYYSRAQWYDYWGQGTLVTVSSGSGGSGGSGGSGDIQMTQSPSSLSASVGDRVTITCKASQDVTTAVAWYQQKPGKAPKLLIYWASTRHTGVPSRFSGSGSGTDFTLTISSLQPEDFATYYCQQHYTIPWTFGGGTKLEIKRTVAAPSVFIFPPSDEQLKSGTASVVCLLNNFYPREAKVQWKVDNALQSGNSQESVTEQDSKDSTYSLSSTLTLSKADYEKHKVYACEVTHQGLSSPVTKSFNRGEC
notes: VHH 2A3 fused to the N-terminus of the anti-PD1 light chain; also called aTIGITxaPD1-LCN
EC50 [5]: 0.61 nM
EC50 (Mean, nM), PD1 + TIGIT Combination Blockade Assay (double blockade) [6]: 1.23 nM
EC50 (Mean, nM), TIGIT Blockade Assay [6]: 8.7 nM
EC50 [7]: 0.75 nM

B3: 2A3-Fc (bivalent 2A3 antibody) (Fc fusion)
chain: QVQLVESGGGVVQPGRSLRLSCAASGGSFSSYPMGWFRQAPGKERESVAAISSDMRFTYYADSVKGRFTISRDNSKNTLYLQMNSLRAEDTAVYYCAARDSGVGYYSRAQWYDYWGQGTLVTVSS
notes: also called parental 2A3-Fc; 2A3 clone; not shown: human IgG1 CH2 and CH3 domains
EC50 (read off the curve) [8]: ~0.1 µg/mL
binding result (recombinant mouse TIGIT): no binding
EC50 (read off the curve) [9]: ~0.1 µg/mL
EC50 (read off the curve) of the NFAT luciferase reporter activity, TIGIT blockade assay [lower panel] [10]: ~1 nM
EC50 (read off the curve) [11]: ~0.5 nM
